# Test results as given in the nanobody polyreactivity screen of Harvey et al. (2022).
# Assay: yeast display, Sf9 membrane polyspecificity reagent, FACS + sequencing; frameworks hold sequencing errors
# Method in brief: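 Synthetic nanobody libraries on Saccharomyces cerevisiae BJ5465 were galactose-induced for 36–48 hours, stained 1 hour at 4 °C with 10% biotinylated, detergent-solubilized Sf9 membrane reagent and enriched on streptavidin microbeads. FACS then separated cells into low and high (top ~1%) gates by anti-HA (expression) and streptavidin (reagent binding) fluorescence. Genes were colony-PCR amplified, MiSeq 2 × 250 sequenced and CDR-length filtered. A clone's polyreactivity label is that of its gate of origin.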
row,Sequence,polyreactivity (PSR sort gate)
1,QVQLVESGGGLVQAGGSLRLSCAASGRTFRWYAMGWYRQAPGKERELVAAINPGGSTNYADSVKGRFTISRDNAKNSVYLQMNSLKPEDTAVYYCNAAGYDALTHNYYWGQGTQVTVSS,low polyreactivity
2,QVQLVESGGGLVQAGGSLRLSCAASVYTSSLNAMGWYRQAPGKERELVARITTDGTSTYYADSVKGRFTISRDNAKNTVYLQMNSLKPEDTAVYYCNARYPAYGVRSWYPYAYYYWGQGTQVTVSS,low polyreactivity
3,QLQLVESGGGLVQAGGRLRLSCAASGLNFYDNMGWYRQPPGKEREFVAAISSSGGSTSYADSVKGRFTISRDNAKNTVYLQMNSLKPEDRAVYYCAADSYPAYLGFVGFDYWGQGTQVTVSS,low polyreactivity
4,QVQLVESGGGLVQAGGSLRLSCAASGRIFKFNTMGWYRQAPGKERELVAVITLSGGRTFYADSVKGRFTISRDNAKNTVYLQMNSLKPEDTAVYYCAKDFEGYEGGLSRDDYWGQGTQVTVSS,low polyreactivity
5,QVQLVESGGGLVQAGGSLRLSCAASGFIFRNYAMGWYRQAPGKERELVAAISRGGRTNYADSVKGLFTISRDNAKNTVYLQMNSLKPEDTAVYYCNAVTVGLYDYWGQVTQVTVSS,high polyreactivity
6,QVQLVESGGALVQAGGSLRLSCAASGLIYSHNAMGWYRQAPGKERELVAAISWRGGRTYYADSVKGRFTISRDNAKNTVYLLMNSLKPEDTAVFYCNKYYGKRYDYLGQGTQVTVSS,high polyreactivity
7,QVQLVESGGGLVQAGGSLRLSCAASGRTFSRYAMGWYRQAPGKEREFVAAITWSSGGTYYADSVKGRFTISRDNAKNTVYLQMNSLKPEDTAVYYCNYLRSRYYQDYNYWGQGTQVTVSS,high polyreactivity
8,QVQLGESGGGLVQAGGSLRLSCAASGSIFQPYAMGWYRQAPGKEREFVAAISRSGGMTYYADSVKGRFTISRDNEKNTVYLQMNSLKPEDTAVYYCATGRQVVRSYSEGDYSGQGTQVTVSS,low polyreactivity
9,QVQLVESGGGLVQAGGSLRLSCAASGFTFSFYAMGWYRQAPGKERELVATISSGGSTTYADSVKGRFTISRDNAKNTVYLQMNSLKPEDTAVYYCAARGKYYRSQDPSGPRRYDYWGQGTQVTVSS,high polyreactivity
10,HVQLVESGGGLVQAGGSLRLSCAASGGIFSYYAMGWFRQAPGKERELVAAISSRGTNTHYADSVKGRFTISRDNAKNTVDLQMNSLKPEDTAVYYCAADKRASPIYDWGQGTQVTVSS,high polyreactivity
11,QVQLVESGGGVVQAGGSLRLSCAASGIIFDYYAMGLYRQAPGKERELVAAITSGGSTYYADSVKGRFTISRDNAKNSVYFQMKSLKAEDTAVYFCAAVYPRVRYDYWGQGTQVNVSS,high polyreactivity
12,QVQLVESGGGLVQAGGSLRLSCAASGSTLSLYAMGWYRQAPGKERELVAAITSSGGTYYADSVKGRFTISRDNAKNTVYLQMNSLKPEDTAVYYCNAYAKDARSYGYHRVNYWGQGTQVTVSS,high polyreactivity
13,QVQLVESGGGLVQAGGSLRLSCAASGIIFGSYTMGWYIQAPGKERELVATISFSGGTTNYADSVKGRFTISRDNAKNTVYLQMNSLKPEDTAVYYCAARPAPATGKLDYWGQGTQVTVSS,low polyreactivity
14,QVQLVESGGGLVQAGGSLRLSCAASGRIFRYYAMGWYRQAPAKERELVASISRRGGSTNYADSVKGRFTISRDNAKNTVYLQMNSLKPEDTAVYYCNAENWSPRGLYNYWGQGTQVTVSS,high polyreactivity
15,QVQLVESGGGLVQAGGSLRLSCAASGLIFIGYAKGWSRQAPGKERELVASIRGVGSTNYADSVKGRFTISRDNAKNTVYLQMHSLKPEDTAVYYCATSVDRALYTQTRGDYDYWGQGTQVTVSS,low polyreactivity
16,QVQLVESGGGLVQAGGSLRLTCAASGSTFDINAMGWYRQAPGKERELVASITFSGGSTYYADSVKGRFTISRDNAKNTVYLQMNSLKPEDTAVYYCAADSSGEYPRWLRYDYWGQGTQVTVSS,low polyreactivity
17,QVQLVESGGGLVQAGGSLRLSCAASGSISYRYDKGWYRQAPGKEMELVATIRSGGSTNYADSVKGRFTISRDTAKNTVYLQMNSLKPEDTAVYYGAARLYARKKLHFSADSDYWGQGTQVTVSS,low polyreactivity
18,QVQLVESGAGLVQAGGSLRLSCDASGRTVNIYAMGWYRQAPGKERELVADISYSDGSTDYADSVKGRFTISRDNAKNTVYLQMNSLKPEDTAVYYCAAYYYYYYGFGQRYYSWGQGTQVTVSS,low polyreactivity
19,QVQLVESGGGLVQAGGSLRLSCAASGSIFFRYAMGWYRQAPGKERELVAAISDSGGTTYYADSVKGRFTISRDNAKNTVYLQMNSLKPEDTAVYYCAARFIYYSNRYYRYREFNYWGQGTQVTVSS,high polyreactivity
20,QVQHVESGGGLVQAVGSLRLSSAASGSTIRYYAMGWYRQAPGKERELVASISSSGGSTFYADSVKGRFTISRDNAKNSVYLQMNSLKPEDTAVYYCARRYHYNMDYWGQGTQVTVSS,high polyreactivity
21,QLQLVESGGGLVQAGGSLRLSCAASGSTFDYNAKGWYRQAPGKERELVAAITSTGGNTYYADSVKGRFTIARDNAKNSVYIQMNSLKQEDTAVYYCNKDVARYPYGKCDYWGQGTQVTVSS,low polyreactivity
22,QVQLVESGGGLVQAGGSLRLTCAASGRIFRTYAMGWYRQAPGKERELVAAISGRGGNTYYADSVKGRFTISRDNAKNTVYLQMNSLKPEDTAVYYCAASKPSRDTQQRWVYAGYDYWGQGTQVTVSS,high polyreactivity

row,Sequence,polyreactivity (PSR sort gate)
1,QVQLVESGRGLVQAGGSLRLSCAASGFIFRYYAMGWYRQAPGKERELVAAINASGGRTYYADSVKGRFTISRDNARNSVYLQMNSLKPEDTAVYYCAAYRSYQTFDYWGQGTQVNVSS,high polyreactivity
2,QVQLVESGGGLVQAGGSLRLSCAASGSILYVNAMGWYRQAPGKERELVAVITSGGSTNNADSVKGRFTISRDNAKNTVYLQMNSLKPEDTAVYYCAADPYSVYGGDYWGQGTQVTVSS,low polyreactivity
3,QVQLVESGGGLVQAGGSLRLSCAASGFTFGSYAMGWYRQAPGKERELVAVITRSGRTNYADSVKGRFTISRDNAKNTVYLLMNSLKPEDTAVYYCNADDVDDEVSPDLTEMDYWGQGTQVTVSS,low polyreactivity
4,QVQLVESGGGLVQAGGSLRLSCAPSGFIFDGYTMGWYRQAPGKETELVAAITTSGTSTYYADSVKGRFTISRDNAKNTVYLQMNSLKPEDTAVYYCAARQYRHRVKYYYWGQGTQVTVSS,high polyreactivity
5,HVQLVESGGGLVQAGRSLRLSCAASGGIFYRYAMGWYRQAPGKEWELVATISRRGGRTYYADSVKGRFTISRDYAKNTVYLQMYSLKPEDTAVDYCAADEWQSGHGLEDDYWGQGTQVTVSS,high polyreactivity
6,QVQLVESGGGLVQAGGSLRLSCAASGIIFDGYAMGWYRQAPGKERELVAAISGHGGSTYYADSVKGRFTISRDNAKNTVYLQMNSLKPEDTAVYYCAAEYVYWRIGQYDYWGQGTQVTVSS,high polyreactivity
7,QVQLVESGGGLVQAGGSLRLSCAASGFIFYRYAMGWYRQAPGKERELVASITKRGGSTRYADSVKGRFTISRDNAKNTVYLQMNSLKPEDTAVYYCAKVPYSTAFDYWGQGTQVTVSS,high polyreactivity
8,QVQLVESGGGLVQAGGSLRLSCAASGSTFGYYAMGWYRQAPGKERELVAAINVSGGRTYYADSVKGRFTISRDNAKNTVYLQMNSLKPEDTAVYYCAASLYSYRSPYTFYYWGQGTQVTVSS,high polyreactivity
9,QVQLVESRGCLVQPGGSLLLSCAASGIIFGHYVMGWYRQAPGKERELVAAISSRGGNTYYADSVKGRFTISRDNAKNTVYLQMNSLKPEDTAVYYCAADRYATPMDYWGQGTQVTVSS,high polyreactivity
10,QVQHVESRGGLDPAGGSLRLSCAASGRIFRGNAMGWSSQATGKERELVASITWRGTSTYYADSVKGRFTISRDIAMNTVYLQMNSLKPEDTAVYYCNAVTQTRGYYWGQGTQVTVSS,high polyreactivity
11,QVQLVESGGGLVQAGGSLRLSCAASGSIFQRYTMGWYRQAPGKERELVAAITSRSGRTYYADSVKGRFTISRDNAKNTVYLQMNSLKPEDTAVYYCATVPYDQTRGYKYDYWGQGTQVTVSS,high polyreactivity
12,QVQLVESGGGLVQAGGSLRISCAASGSIFYRYAMGWYRQAPGKERELVAAIRTRGGTYYADSVKGRFTISRDNAKNTVYLQMNSLKPEDTAVYYCNAVVPGWTAVDYDYWGQGTQVTVSS,high polyreactivity
13,QGQLVESGGGLVQAGGSLRITCAASGITFPYNAMGWYRQAPGTERELVAAITRSGASTYYADSVKGRFTISRDNSKNTVYVQMNSLKPEDTAVYYCAAKVIGRPRPYYYWGQGTQVTVSS,high polyreactivity
14,QVQLVESGGGLVQAGGSLRLSCAASGSTLGYNVMGCYIQAPGKERELVAAISGDGSTNYADSVKGRFTISRDNAKNTVYLQMNSLKPEDTAVYYCAARPGWFAGYEYWGQGTQVTVSS,low polyreactivity
15,QVQLQESGGGLVQAGGSLRLSCAASGSIFDYVSMGWYRQAPGEERELVVTITLGSNTYYADSVKGRFTISSDIAKNTVYLQMNSLNPEDTAVYYCAASALWGYVYPYWGLGTQVTVSS,high polyreactivity
16,QVQLVESGGGLVQAGGSLRLSCAASGYTFGGNAMGWYRQAPGKERELVAAISNTGGRTNYADSVKGRFTISRDNAKNTVYLQMNSLKPEDTAVSYCAKSVYYRDRYGGDYWGQGTQVTVSS,low polyreactivity
17,QVQLVESGGGLVQAGGSLRLSCAAYGRIFRYNAMGWSTQAPGKERELVAAISRGGSSTYYADSVKGRFTISRDNAKNTVYLQMNSLQPEDTAVYYCNARSVVREFNNWGQGTQVTVSS,high polyreactivity
18,QVQLVESGGGLVQAGGSLRLSCAASGSIFYYNAMGLYIQAPGKERELVAAITSSGGSTYYADSVKGRFTISRDNAKNTVYLQMNSLNPEDTAVYYCNNDTLVYGYVQDSEYWGQGTQVTVSS,low polyreactivity
19,QVQLVESGGGLVQAGGSLRLICAASGLTFHPYAMGWYRPAPGKERELVAAISSRGTSTYYADSVKGRFTISRDNAQNTVYLQMNCLKPEDTAVYYFAARHGPRAEAMYYWGQGTQVTVSS,high polyreactivity
20,QVQLVESGGGLVQAGGSLRLSCAASGYIFNYAMGWYRQAPGKERQLVAAISRRGGSTYYADSVKGRFTISRDNAKNTVYLQMISLKPEDTAVYYCADRLPGYYGIGDYWGQGSQVTVSS,high polyreactivity
21,QVQLVESGGGLVQAGGSLRLSCAASGRTFSGNTMGWYRQAPGKERELVAAISSGGSRTYYADSVKGRFTISRDNAKNTVYLLMNSLKPEDTAVYYCATVSTYYHYRRYDYWGQGTQVTVSS,high polyreactivity
